In the RNAGym collection of RNA variant scans (doi:10.1073/pnas.2313332121):
For some assays here: This sample holds only a part of the variants without activity.

B1: TPR t1 (parent)
chain: GACCAAUCUGCCCUCAGAGCUCGAGAACAUCUUCGGAUGCAGAGGAGGCAGGCUUCGGUGGCGCGAUAGCGCCAACGUCCUCAACCUCCAAUGCAUCCCACCACAUGAUGAUGCCUGAAGAGCCUUGGUUUUUUG
B2: TPR 5TU (parent)
chain: GGAUCUUCUCGAUCUAACAAAAAAGACAAAUCUGCCACAAAGCUUGAGAGCAUCUUCGGAUGCAGAGGCGGCAGCCUUCGGUGGCGCGAUAGCGCCAACGUUCUCAACUAUGACACGCAAAACGCGUGCUCCGUUGAAUGGAGUUUAUCAUG

Variants of: B1
Assay: polymerase ribozyme fitness, log enrichment relative to wild type (log ratio); higher = more active; in vitro selection for triplet polymerase activity
Procedure, shortened: (§1)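 In triplicate, a single round of in vitro selection was run on each mutant library, PCR-built and transcribed, covering one subunit of a heterodimeric triplet polymerase ribozyme. Frozen incubation at −7 °C followed annealing with a biotinylated primer, partner subunit and triplets, and extended constructs were then gel-excised, streptavidin-captured and taken through RT-PCR. Fitness is the logarithm of genotype enrichment over wild-type enrichment, from inverse-variance-weighted replicate averages of Illumina-sequenced inputs and outputs. […] only genotypes with ≥10 input reads and ≥1 read per output were kept.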

Variant | polymerase ribozyme fitness (log ratio)
G107U A111U | -4.03
C114G C124A | -1.15
G113U C124G | -1.38
U112A G135A | 2.15
G110C A118U | -4.26
G117C A121G U130C | 0.325
G117C G120C | -3.46
A111C U131A | -1.12
G110A G127C | -1.94
G113U C114A | -4.29
A111U C123U G127C | -4.76
C115U U116C | -2.06
G113A G135U | -2.05
C115A G122A | -0.767
C115A G120U | -0.0245
G110U G135C | -1.54
U112A G117A G120U C124G | -1.37
G117A U130A | -2.15
C115U U133A | -0.794
G113A G122A | -2.77
C114G G135U | -2.93
A105C U125G | -3.17
U109A U132C | -5.12
U106G C114G | -3.54
C114A U116G | -3.78
G113U U129A | -3.53
A119U C123U | 2.17

Variant | polymerase ribozyme fitness (log ratio)
A119U C123A | -0.124
U112A C115A | 1.16
A118U | 0.282
A118C | -2.45
A118G | -0.226
A108G G113A | -2.47
C104U U112G | 0.761
G110A G117U | -4.78
U109G | -4.35
U109C | -2.41
U109A | -5.11
G120A | 0.66
G120U | 0.195
G120C | 1.05
U106A C124A | 1.81
G117U G120A | -2.24
C115U C124G | 0.35
U133A | -0.252
U133C | 0.332
U133G | -0.279
G117C U132A | -3.52
C114U G117C | -7.14
G128C U130C | -1.33
G110A G128U | -3.47
U106C A118U | -0.171
G110C C115U | -4.71
G120A G122U | 0.476

Variants of: B2
Assay: as above
Procedure, shortened: as §1

Variant | polymerase ribozyme fitness (log ratio)
A3G C14G A16C U82C C129G C131A | ≤ -4.2
A3G C75A C93A A97U A98U U101G C118U | ≤ -4.2
A3C U7C A47C U55A G59A A73U U82G U146C | ≤ -4.2
A3C U6G C57U G74C C149U | ≤ -4.2
A3G A20C G65C G68C A98G C149U G152U | ≤ -4.2
A3G C27U G50A C51U C85A G140U | ≤ -4.2
A3U A21C G62C C63U A73U C79U G84A C93G A106U U145G | ≤ -4.2
A3G A24C U53A U61A C85G | ≤ -4.2
A3G U13A G42C C75U A138U | ≤ -4.2
A3C C5A A52C G65U C99G G133C | ≤ -4.2
A3G C43U G65U G68A G71A G86U G112U G152A | ≤ -4.2
A3C U6G A49C G65A G71A G88C C93A U135C | ≤ -4.2
A3G U33C G58C C116G U139A G141U U146C | ≤ -4.2
A3U A142C | -1.59
A3C A121U | 0.339
A3C U4G A16G U33G C43U G92U A106G | ≤ -4.2
A3G A24U U55A C85A | -2.17
A3C C14G C27U C85U U144G | -2.9
A3U A19U | -0.0693
A3G G94A | -1.67
A3C U9A G11A C35G C75A G117A U145C | ≤ -4.2
A3G C8G A22U A26G G46C C96U | ≤ -4.2
A3C G58U C76U G84A C85U G94A | -2.53
A3G U6A U31G G88U | ≤ -4.2
A3G C18U A49C C57U C85G G143U | ≤ -4.2
A3U C36A U55C C79A C99A U145G | ≤ -4.2
A3C A23C G74A C85A C103U U130A | ≤ -4.2
A3G A12C A37C G48A A49C U78G G86A C87G C99U A142C U146G | ≤ -4.2
A3G U53C A60C G62C A91G U104C C118A A120U U134G | ≤ -4.2
